Results published in patent publication US20250326840A1 (QURE BIOTECHNOLOGY SHANGHAI, published 2025).
Changes are numbered by the printed parent chain. In names and notes the source's numbering stands. Blank lines part the entries; values can stand above or below the binder they belong to.

Assays:
[1] = biological target: QP003 (PDL1-his); assay: ELISA, QP003 (PDL1-his) captured on coated anti-his, anti-hFc detection; unit from the x axis Log(Conc.(nM))
[2] = biological target: T1, QP094 (human SIRPα V1 ECD(E31-R370)-flag-his) (human, UniProt P78324 31-370); assay: binding ELISA, antigen coated
T1 construct: the construct carries flag and his tags; also called SIRPαV1-flag-his; SIRPαV1-his (QP094)

[3] = biological target: T2, QP096 (human SIRPα V2 ECD(E31-R370)-flag-his) (human); assay: binding ELISA, antigen coated
T2 construct: the construct carries flag and his tags; also called SIRPαV2-Flag-his; Human SIRPα V2 (QP096)

[4] = biological target: T3, QP098 (cyno SIRPα (I7G9Z7) ECD(E31-R369)-flag-his) (cynomolgus); assay: binding ELISA, antigen coated
T3 construct: the construct carries flag and his tags; also called cynoSIRPα (ECD); cynomolgus SIRPα
T3 chain: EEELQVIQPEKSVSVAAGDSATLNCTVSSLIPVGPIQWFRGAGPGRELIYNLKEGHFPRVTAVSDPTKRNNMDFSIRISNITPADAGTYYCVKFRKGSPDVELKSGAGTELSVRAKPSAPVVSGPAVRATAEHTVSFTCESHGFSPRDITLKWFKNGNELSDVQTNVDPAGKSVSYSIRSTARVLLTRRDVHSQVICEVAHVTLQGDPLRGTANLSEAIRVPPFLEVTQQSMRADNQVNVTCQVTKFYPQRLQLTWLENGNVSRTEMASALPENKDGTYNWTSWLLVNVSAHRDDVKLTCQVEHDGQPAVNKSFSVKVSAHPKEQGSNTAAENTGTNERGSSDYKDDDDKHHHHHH

[5] = biological target: T4, QP100 (cyno SIRPα (G7PGS8) ECD(E29-R368)-flag-his) (cynomolgus); assay: binding ELISA, antigen coated
T4 construct: the construct carries flag and his tags; also called cynoSIRPα-flag-his; Cynomolgus SIRPα (QP100)
T4 chain: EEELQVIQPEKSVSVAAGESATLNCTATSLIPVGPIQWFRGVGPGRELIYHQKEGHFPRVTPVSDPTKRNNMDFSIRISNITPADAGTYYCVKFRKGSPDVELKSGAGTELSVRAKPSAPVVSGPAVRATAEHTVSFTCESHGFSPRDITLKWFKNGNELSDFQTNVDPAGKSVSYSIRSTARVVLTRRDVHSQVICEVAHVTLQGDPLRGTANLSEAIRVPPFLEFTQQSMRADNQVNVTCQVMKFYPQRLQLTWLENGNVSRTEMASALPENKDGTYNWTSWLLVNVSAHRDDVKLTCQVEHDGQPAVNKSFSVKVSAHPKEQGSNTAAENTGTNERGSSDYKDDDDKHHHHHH

[6] = biological target: T5, QP271 (rhesus SIRPα1-flag-his T-557-28) (rhesus monkey); assay: binding ELISA, antigen coated
T5 construct: also called rhesus monkey SIRPα (QP271); monkeySIRPα1-flag-his
T5 chain: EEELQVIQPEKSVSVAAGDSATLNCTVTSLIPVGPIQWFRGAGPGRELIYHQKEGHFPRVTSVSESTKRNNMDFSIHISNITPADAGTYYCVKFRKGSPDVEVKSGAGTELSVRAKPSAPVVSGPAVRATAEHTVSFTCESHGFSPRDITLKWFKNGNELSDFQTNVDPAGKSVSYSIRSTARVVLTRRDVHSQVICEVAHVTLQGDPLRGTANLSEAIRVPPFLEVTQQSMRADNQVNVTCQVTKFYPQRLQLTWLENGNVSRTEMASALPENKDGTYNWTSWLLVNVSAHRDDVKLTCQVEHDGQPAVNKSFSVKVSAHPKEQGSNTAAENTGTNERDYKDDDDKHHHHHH

[7] = biological target: T6, QP273 (cynoSIRPα2-flag-his T-557-14) (cynomolgus); assay: binding ELISA, antigen coated
T6 construct: also called cynomolgus SIRPα (QP273)
T6 chain: T5 chain with D19E, V27A, A42V, H51S, S62P, E65D, S66P, H77R, V103L

[8] = biological target: T7, QP002 (biotinylated in the blocking assays, sites not given); assay: blocking ELISA: QP001.2 (CD47) coated, biotin-QP002 (SIRPα-FC) mixed with the antibody, HRP-streptavidin; blocked ligand: CD47; unit from the x axis Log[Conc.(ug/ml)]
T7 construct: also called SIRPα-FC; Biotin-QP002

[9] = biological target: T1, QP094 (human SIRPα V1 …); assay: SPR, Biacore
[10] = biological target: T2, QP096 (human SIRPα V2 …); assay: SPR, Biacore
[11] = biological target: T3, QP098 (cyno SIRPα (I7G9Z7) …); assay: SPR, Biacore
[12] = biological target: T5, QP271 (rhesus SIRPα1-flag-his T-557-28); assay: SPR, Biacore
[13] = biological target: T6, QP273 (cynoSIRPα2-flag-his T-557-14); assay: SPR, Biacore
[14] = biological target: T7, QP002; assay: blocking ELISA: QP001.2 (CD47) coated, biotin-QP002 (SIRPα-FC) mixed with the antibody, HRP-streptavidin; blocked ligand: CD47
[15] = biological target: T8, PD-L1-his (QPP09) (human, UniProt Q9NZQ7 19-239, limits assumed); assay: SPR, Biacore 8K
T8 construct: also called human PD-L1; human PD-L1 recombinant protein

[16] = biological target: PD-L1-mouse Fc protein (human, UniProt Q9NZQ7 19-239, limits assumed); assay: blocking ELISA: QP1138 (PD1-FC) coated, PDL1-mouse FC mixed with the antibody, HRP anti-mouse IgG; blocked partner: PD-1; unit from the x axis Log(Conc.(nM))
Chain of PD-L1-mouse Fc protein (Q9NZQ7 19-239 limits assumed): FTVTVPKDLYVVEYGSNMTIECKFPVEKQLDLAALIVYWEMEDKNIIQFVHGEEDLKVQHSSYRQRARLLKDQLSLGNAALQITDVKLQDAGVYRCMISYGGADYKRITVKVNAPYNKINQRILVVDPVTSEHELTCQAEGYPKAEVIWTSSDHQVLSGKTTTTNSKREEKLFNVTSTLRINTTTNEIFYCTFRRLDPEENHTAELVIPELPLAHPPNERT

T1 sequence (P78324 other isoform, or with tags, fused parts or gaps limits assumed): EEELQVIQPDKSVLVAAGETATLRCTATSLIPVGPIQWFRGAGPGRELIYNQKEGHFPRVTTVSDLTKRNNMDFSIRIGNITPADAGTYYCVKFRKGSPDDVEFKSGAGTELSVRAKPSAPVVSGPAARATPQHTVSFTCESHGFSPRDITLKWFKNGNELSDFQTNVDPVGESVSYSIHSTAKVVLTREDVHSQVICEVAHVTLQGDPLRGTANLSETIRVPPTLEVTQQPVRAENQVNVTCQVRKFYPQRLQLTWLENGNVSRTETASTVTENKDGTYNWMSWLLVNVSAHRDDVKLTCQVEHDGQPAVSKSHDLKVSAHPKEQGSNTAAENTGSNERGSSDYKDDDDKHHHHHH
T8 sequence (Q9NZQ7 19-239 limits assumed): as the sequence (Q9NZQ7 19-239 limits assumed) above
T2 sequence (chain, as listed by the source limits assumed): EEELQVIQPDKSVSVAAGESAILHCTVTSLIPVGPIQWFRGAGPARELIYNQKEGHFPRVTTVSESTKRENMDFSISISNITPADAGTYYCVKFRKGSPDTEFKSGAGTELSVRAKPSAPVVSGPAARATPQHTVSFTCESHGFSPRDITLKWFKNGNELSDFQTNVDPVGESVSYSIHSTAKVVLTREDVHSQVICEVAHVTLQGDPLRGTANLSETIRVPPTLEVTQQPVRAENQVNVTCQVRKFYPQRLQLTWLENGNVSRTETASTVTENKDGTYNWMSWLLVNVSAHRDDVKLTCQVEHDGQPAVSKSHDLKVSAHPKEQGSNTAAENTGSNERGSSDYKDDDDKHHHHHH
Chain of QP003 (PDL1-his) (chain, as listed by the source limits assumed): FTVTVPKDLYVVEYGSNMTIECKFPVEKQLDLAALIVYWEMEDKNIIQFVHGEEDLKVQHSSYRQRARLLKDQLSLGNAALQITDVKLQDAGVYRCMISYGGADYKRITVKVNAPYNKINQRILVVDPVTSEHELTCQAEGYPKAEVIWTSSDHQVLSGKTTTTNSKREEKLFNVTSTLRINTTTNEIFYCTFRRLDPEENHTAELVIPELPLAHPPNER
T7 sequence (SIRPα-Fc fusion chain, as listed by the source): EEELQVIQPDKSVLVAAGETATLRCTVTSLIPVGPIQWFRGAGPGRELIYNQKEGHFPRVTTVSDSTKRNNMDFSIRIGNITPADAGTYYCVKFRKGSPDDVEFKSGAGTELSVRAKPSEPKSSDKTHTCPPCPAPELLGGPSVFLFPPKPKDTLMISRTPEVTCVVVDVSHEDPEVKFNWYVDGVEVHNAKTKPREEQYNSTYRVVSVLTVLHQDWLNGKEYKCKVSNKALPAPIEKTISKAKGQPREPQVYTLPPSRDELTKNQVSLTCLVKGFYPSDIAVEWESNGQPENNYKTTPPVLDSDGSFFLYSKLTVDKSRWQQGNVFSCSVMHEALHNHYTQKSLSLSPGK

B1: QP06260279 (bispecific antibody, human IgG1, kappa, L234A L235A)
heavy: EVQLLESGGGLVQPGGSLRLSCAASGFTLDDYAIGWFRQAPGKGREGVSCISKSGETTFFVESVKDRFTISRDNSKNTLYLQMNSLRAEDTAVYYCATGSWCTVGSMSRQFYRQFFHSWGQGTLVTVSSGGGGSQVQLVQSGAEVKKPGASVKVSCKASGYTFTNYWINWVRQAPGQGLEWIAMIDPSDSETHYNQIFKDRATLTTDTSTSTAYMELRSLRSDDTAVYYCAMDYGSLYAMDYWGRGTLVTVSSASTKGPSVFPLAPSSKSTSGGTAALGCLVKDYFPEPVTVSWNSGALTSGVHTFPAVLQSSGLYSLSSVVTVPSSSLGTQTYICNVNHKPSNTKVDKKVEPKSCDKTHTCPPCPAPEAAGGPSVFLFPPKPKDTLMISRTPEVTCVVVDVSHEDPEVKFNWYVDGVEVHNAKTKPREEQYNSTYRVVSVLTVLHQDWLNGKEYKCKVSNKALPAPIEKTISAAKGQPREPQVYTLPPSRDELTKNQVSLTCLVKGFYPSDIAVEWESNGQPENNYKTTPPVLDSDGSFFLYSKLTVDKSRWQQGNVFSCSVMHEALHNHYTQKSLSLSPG
light: DIVLTQSPDSLAVSLGERATINCRASQSVRSSGYNWIFWYQQKPGQPPKLLIYLASNRDSGVPDRFSGSGSGTDFTLTISSLQAEDVAVYYCQHSRELPTFGQGTKLEIKRTVAAPSVFIFPPSDEQLKSGTASVVCLLNNFYPREAKVQWKVDNALQSGNSQESVTEQDSKDSTYSLSSTLTLSKADYEKHKVYACEVTHQGLSSPVTKSFNRGEC
notes: Anti-PD-L1 VHH-G4S fused to the N-terminus of the heavy chain
EC50 [1]: 0.0176 nM

B5: QP256291 (antibody, human IgG4, V domains shown)
VH: QVQLVQSGAEVKKPGASVKVSCKASGYTFTNYWINWVRQAPGQGLEWIAMIDPSDSETHYNQIFKDRATLTTDTSTSTAYMELRSLRSDDTAVYYCAMDYGSLYAMDYWGRGTLVTVSS
VL: DIVLTQSPDSLAVSLGERATINCRASKSVGSSGYNWLFWYQQKPGQPPKLLIYLASNRDSGVPDRFSGSGSGTDFTLTISSLQAEDVAVYYCQHSRELPTFGQGTKLEIK
notes: Human IgG4 heavy constant region and kappa CL
EC50 [2]: 1.86 ng/mL
EC50 [3]: 1.43 ng/mL
EC50 [4]: 1.57 ng/mL
EC50 [5]: 1.18 ng/mL
EC50 [6]: 1.17 ng/mL
EC50 [7]: 1.62 ng/mL
IC50 [8]: 23.4 ng/mL

B6: QP2561586 (antibody, human IgG4, V domains shown)
VH: B5 VH
VL: B5 VL with G30S, W36Y, L37I, R58L, H94E
notes: as for B5
Kd [9]: 0.0597 nM
Kd [10]: 0.0891 nM
Kd [11]: 4.22 nM
Kd [12]: 1.74 nM
Kd [13]: 2.22 nM
EC50 [2]: 1.05 ng/mL
EC50 [3]: 1.11 ng/mL
EC50 [4]: 1.2 ng/mL
EC50 [5]: 1.23 ng/mL
EC50 [6]: 0.967 ng/mL
EC50 [7]: 1.03 ng/mL
IC50 (read off the curve) [14]: ~20 ng/mL

B7: QP2561589 (antibody, human IgG4, V domains shown)
VH: B5 VH
VL: B5 VL with G30S, W36Y, L37I, R58L, H94E, R96W
notes: as for B5
Kd [9]: 0.085 nM
Kd [10]: 0.0392 nM
Kd [11]: 6.03 nM
Kd [12]: 2.41 nM
Kd [13]: 3.2 nM
EC50 [2]: 1.37 ng/mL
EC50 [3]: 1.17 ng/mL
EC50 [4]: 1.6 ng/mL
EC50 [5]: 2.01 ng/mL
EC50 [6]: 0.936 ng/mL
EC50 [7]: 1.43 ng/mL
IC50 (read off the curve) [14]: ~20 ng/mL

B8: QP2561771 (antibody, human IgG4, V domains shown)
VH: B5 VH
VL: B5 VL with G30S, L37I, H94E
notes: as for B5
EC50 [2]: 1.15 ng/mL
EC50 [3]: 1.13 ng/mL
EC50 [4]: 1.08 ng/mL
EC50 [5]: 1.13 ng/mL
EC50 [6]: 1.13 ng/mL
EC50 [7]: 1.22 ng/mL
IC50 [8]: 23.3 ng/mL

B9: QP2561594 (antibody, human IgG4, V domains shown)
VH: B5 VH
VL: B5 VL with G30S, W36Y, L37I, R58L, E97D
notes: as for B5
EC50 [2]: 1.12 ng/mL
EC50 [3]: 1.05 ng/mL
EC50 [4]: 1.13 ng/mL
EC50 [5]: 0.983 ng/mL
EC50 [6]: 0.807 ng/mL
EC50 [7]: 2.35 ng/mL
IC50 (read off the curve) [14]: ~20 ng/mL

B10: QP2561581 (antibody, human IgG4, V domains shown)
VH: B5 VH
VL: B5 VL with G30S, W36Y, L37I, R58L, S60P
notes: as for B5
Kd [9]: 0.137 nM
Kd [10]: 0.176 nM
EC50 [2]: 1.07 ng/mL
EC50 [3]: 0.862 ng/mL
EC50 [4]: 0.918 ng/mL
EC50 [5]: 0.758 ng/mL
EC50 [6]: 0.555 ng/mL
EC50 [7]: 0.921 ng/mL
IC50 (read off the curve) [14]: ~20 ng/mL

B11: QP2561770 (antibody, human IgG4, V domains shown)
VH: B5 VH
VL: B5 VL with K27Q, G30R, L37I, H94E
notes: as for B5
Kd [9]: 0.0288 nM
Kd [10]: 0.0368 nM
Kd [11]: 0.256 nM
Kd [12]: 0.1 nM
Kd [13]: 0.163 nM
EC50 [2]: 1.61 ng/mL
EC50 [3]: 1.36 ng/mL
EC50 [4]: 1.3 ng/mL
EC50 [5]: 1.01 ng/mL
EC50 [6]: 1.21 ng/mL
EC50 [7]: 1.68 ng/mL
IC50 [8]: 25 ng/mL

The remaining lines, values ahead:

EC50 [1]: 0.0198 nM
B2: QP06270279 (bispecific antibody, human IgG1, kappa, L234A L235A)
heavy: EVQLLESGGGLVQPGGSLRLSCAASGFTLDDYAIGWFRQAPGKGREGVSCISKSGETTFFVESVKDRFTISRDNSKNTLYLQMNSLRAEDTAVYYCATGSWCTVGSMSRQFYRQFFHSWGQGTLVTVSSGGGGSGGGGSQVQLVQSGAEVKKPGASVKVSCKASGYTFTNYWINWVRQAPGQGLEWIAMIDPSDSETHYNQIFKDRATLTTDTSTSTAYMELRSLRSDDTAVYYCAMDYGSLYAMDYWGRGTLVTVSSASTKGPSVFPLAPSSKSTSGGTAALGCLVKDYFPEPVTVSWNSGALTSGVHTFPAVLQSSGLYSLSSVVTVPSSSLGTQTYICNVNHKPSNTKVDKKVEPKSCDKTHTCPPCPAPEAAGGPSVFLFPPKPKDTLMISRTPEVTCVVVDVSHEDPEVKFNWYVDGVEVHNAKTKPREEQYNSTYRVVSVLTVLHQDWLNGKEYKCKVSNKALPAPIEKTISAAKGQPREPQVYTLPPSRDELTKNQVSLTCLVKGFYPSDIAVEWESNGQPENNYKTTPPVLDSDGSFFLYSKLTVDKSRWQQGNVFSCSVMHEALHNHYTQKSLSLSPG
light: B1 light
notes: Anti-PD-L1 VHH-(G4S)2 fused to the N-terminus of the heavy chain

EC50 [1]: 0.0215 nM
B3: QP06280279 (bispecific antibody, human IgG1, kappa, L234A L235A)
heavy: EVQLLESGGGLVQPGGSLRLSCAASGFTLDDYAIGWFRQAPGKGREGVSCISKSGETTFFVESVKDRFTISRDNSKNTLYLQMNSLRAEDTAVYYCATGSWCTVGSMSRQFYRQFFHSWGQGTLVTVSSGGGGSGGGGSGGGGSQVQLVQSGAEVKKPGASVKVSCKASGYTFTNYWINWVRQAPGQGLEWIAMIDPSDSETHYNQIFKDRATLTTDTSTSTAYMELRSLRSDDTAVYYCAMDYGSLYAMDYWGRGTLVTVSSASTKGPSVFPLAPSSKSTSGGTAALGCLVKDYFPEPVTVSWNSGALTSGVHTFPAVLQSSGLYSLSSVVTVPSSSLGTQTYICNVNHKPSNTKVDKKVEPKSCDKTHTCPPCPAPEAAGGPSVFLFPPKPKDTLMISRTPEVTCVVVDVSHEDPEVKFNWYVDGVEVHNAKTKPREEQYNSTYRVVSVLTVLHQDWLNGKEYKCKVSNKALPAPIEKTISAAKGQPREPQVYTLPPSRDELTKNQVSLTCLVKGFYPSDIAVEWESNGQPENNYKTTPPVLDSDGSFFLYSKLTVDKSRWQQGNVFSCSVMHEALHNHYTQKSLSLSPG
light: B1 light
notes: Anti-PD-L1 VHH-(G4S)3 fused to the N-terminus of the heavy chain

EC50 [1]: 0.0205 nM
B4: QP32700623 (bispecific antibody, human IgG1, kappa, L234A L235A)
heavy: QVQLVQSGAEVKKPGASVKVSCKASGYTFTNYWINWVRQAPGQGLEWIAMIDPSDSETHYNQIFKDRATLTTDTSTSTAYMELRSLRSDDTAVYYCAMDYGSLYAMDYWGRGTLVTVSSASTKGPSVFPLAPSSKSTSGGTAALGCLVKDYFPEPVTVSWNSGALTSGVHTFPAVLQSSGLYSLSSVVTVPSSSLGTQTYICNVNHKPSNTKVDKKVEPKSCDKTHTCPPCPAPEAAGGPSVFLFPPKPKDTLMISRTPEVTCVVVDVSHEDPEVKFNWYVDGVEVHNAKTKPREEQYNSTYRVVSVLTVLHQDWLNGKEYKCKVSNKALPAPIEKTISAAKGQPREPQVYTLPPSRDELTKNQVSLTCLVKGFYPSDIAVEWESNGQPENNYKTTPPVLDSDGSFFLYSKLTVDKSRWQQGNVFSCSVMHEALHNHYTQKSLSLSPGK
light: EVQLLESGGGLVQPGGSLRLSCAASGFTLDDYAIGWFRQAPGKGREGVSCISKSGETTFFVESVKDRFTISRDNSKNTLYLQMNSLRAEDTAVYYCATGSWCTVGSMSRQFYRQFFHSWGQGTLVTVSSGGGGSDIVLTQSPDSLAVSLGERATINCRASQSVRSSGYNWIFWYQQKPGQPPKLLIYLASNRDSGVPDRFSGSGSGTDFTLTISSLQAEDVAVYYCQHSRELPTFGQGTKLEIKRTVAAPSVFIFPPSDEQLKSGTASVVCLLNNFYPREAKVQWKVDNALQSGNSQESVTEQDSKDSTYSLSSTLTLSKADYEKHKVYACEVTHQGLSSPVTKSFNRGEC
notes: Anti-PD-L1 VHH-G4S fused to the N-terminus of the light chain

Kd [15]: 1.64 nM
koff [15]: 0.00122 s⁻¹
kon [15]: 744000 M⁻¹ s⁻¹
EC50 [1]: 0.0134 nM
IC50 [16]: 0.663 nM
B12: QP32700624 (bispecific antibody, human IgG1, kappa, L234A L235A)
heavy: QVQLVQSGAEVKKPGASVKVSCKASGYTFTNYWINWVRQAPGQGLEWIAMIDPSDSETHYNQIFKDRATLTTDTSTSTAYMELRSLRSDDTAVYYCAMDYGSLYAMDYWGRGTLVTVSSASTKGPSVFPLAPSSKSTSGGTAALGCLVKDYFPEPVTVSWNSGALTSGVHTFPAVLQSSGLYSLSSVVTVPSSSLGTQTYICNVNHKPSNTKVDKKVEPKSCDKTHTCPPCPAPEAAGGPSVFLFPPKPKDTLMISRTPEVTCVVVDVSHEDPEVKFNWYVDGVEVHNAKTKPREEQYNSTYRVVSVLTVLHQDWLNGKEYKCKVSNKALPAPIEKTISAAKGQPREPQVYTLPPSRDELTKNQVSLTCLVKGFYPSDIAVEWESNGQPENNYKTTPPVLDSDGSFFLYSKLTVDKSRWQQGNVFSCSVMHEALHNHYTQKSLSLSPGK
light: EVQLLESGGGLVQPGGSLRLSCAASGFTLDDYAIGWFRQAPGKGREGVSCISKSGETTFFVESVKDRFTISRDNSKNTLYLQMNSLRAEDTAVYYCATGSWCTVGSMSRQFYRQFFHSWGQGTLVTVSSGGGGSGGGGSDIVLTQSPDSLAVSLGERATINCRASQSVRSSGYNWIFWYQQKPGQPPKLLIYLASNRDSGVPDRFSGSGSGTDFTLTISSLQAEDVAVYYCQHSRELPTFGQGTKLEIKRTVAAPSVFIFPPSDEQLKSGTASVVCLLNNFYPREAKVQWKVDNALQSGNSQESVTEQDSKDSTYSLSSTLTLSKADYEKHKVYACEVTHQGLSSPVTKSFNRGEC
notes: Anti-PD-L1 VHH-(G4S)2 fused to the N-terminus of the light chain
